The source of these data is patent US20150344570A1 (published 2015).

The chains are these.
T1: FcγRIIb extracellular domain with C-terminal His tag (human, UniProt P31994 43-217)
T1 construct: extracellular domain; also called FcgRIIb; 2b
T1 sequence (looked up): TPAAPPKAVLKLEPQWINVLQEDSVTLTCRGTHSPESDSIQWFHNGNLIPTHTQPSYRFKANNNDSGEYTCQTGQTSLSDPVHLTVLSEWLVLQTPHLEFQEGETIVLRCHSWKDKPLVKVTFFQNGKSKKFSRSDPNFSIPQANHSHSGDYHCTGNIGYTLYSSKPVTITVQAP

T2: FcγRIIa R (human, UniProt P12318 34-217)
T2 construct: extracellular domain; also called FcgRIIa R type; 2aR
T2 sequence (looked up): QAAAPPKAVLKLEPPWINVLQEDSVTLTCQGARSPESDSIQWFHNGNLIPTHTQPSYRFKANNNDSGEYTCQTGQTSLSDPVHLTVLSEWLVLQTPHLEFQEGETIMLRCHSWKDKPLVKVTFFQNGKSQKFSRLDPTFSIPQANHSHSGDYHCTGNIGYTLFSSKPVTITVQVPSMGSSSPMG

B1: GpH7-B3 variant K326_20W/GpL16-k0 (antibody, human IgG1, kappa)
heavy: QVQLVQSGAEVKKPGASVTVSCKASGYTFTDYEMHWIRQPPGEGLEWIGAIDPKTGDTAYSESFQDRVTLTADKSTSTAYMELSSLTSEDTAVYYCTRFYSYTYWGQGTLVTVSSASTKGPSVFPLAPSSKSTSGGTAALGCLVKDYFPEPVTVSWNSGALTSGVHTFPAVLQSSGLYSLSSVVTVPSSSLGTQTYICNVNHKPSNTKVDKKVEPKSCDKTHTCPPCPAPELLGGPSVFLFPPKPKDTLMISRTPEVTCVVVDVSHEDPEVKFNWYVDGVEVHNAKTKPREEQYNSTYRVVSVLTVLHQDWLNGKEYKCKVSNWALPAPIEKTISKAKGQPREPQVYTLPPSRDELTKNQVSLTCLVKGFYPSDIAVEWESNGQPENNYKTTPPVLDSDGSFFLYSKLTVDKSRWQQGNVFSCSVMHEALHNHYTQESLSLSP
light: DIVMTQSPLSLPVTPGEPASISCQASESLVHSNRNTYLHWYLQKPGQSPQLLIYKVSNRFSGVPDRFSGSGSGTDFTLKISRVEAEDVGVYYCSQNTHVPPTFGQGTKVEIERTVAAPSVFIFPPSDEQLKSGTASVVCLLNNFYPREAKVQWKVDNALQSGNSQESVTEQDSKDSTYSLSSTLTLSKADYEKHKVYACEVTHQGLSSPVTKSFNRGEC
notes: also called Ho Ab K326_20W
B2: GpH7-B3 variant G237_06M/GpL16-k0 (antibody, human IgG1, kappa)
heavy: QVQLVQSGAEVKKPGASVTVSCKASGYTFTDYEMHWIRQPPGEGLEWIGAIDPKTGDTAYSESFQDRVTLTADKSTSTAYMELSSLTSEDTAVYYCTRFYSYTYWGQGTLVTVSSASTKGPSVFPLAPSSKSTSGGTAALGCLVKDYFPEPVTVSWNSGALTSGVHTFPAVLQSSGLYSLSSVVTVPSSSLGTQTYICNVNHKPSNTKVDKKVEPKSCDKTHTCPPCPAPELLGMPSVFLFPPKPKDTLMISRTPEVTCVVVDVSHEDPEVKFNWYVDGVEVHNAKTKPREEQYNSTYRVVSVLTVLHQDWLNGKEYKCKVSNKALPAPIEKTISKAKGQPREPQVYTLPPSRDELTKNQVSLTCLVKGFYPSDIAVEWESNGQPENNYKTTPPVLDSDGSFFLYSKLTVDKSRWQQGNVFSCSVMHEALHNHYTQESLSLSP
light: B1 light
notes: also called Ho Ab G237_06M
B3: GpH7-B3 variant G237_15Y/GpL16-k0 (antibody, human IgG1, kappa)
heavy: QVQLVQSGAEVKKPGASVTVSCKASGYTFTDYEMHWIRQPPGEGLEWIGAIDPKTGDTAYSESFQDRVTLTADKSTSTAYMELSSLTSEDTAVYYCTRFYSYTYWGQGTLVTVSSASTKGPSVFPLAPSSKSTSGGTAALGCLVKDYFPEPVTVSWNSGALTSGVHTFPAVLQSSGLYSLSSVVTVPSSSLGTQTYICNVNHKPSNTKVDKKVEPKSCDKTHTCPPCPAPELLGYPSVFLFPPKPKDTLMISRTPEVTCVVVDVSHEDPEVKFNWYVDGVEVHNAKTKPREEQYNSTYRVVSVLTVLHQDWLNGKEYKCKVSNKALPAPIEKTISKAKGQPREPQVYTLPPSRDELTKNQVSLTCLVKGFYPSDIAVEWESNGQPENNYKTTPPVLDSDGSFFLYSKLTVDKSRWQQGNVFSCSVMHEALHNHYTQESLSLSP
light: B1 light
notes: also called Ho Ab G237_15Y
B4: GpH7-A5/GpH7-B3 variant P331_03V/GpL16-k0 (antibody, human IgG1, kappa)
heavy 1: not shown
heavy 2: not shown
light: B1 light
notes: also called He Ab P331_03V
B5: GpH7-A5/GpH7-B3 variant P331_04F/GpL16-k0 (antibody, human IgG1, kappa)
heavy 1: not shown
heavy 2: not shown
light: B1 light
notes: also called He Ab P331_04F
B6: GpH7-A5/GpH7-B3 variant P238_20W/GpL16-k0 (antibody, human IgG1, kappa)
heavy 1: not shown
heavy 2: not shown
light: B1 light
notes: also called He Ab P238_20W
B7: GpH7-A5/GpH7-B3 variant P238_19Q/GpL16-k0 (antibody, human IgG1, kappa)
heavy 1: not shown
heavy 2: not shown
light: B1 light
notes: also called He Ab P238_19Q
B8: GpH7-A5/GpH7-B3 variant P271_09D/GpL16-k0 (antibody, human IgG1, kappa)
heavy 1: not shown
heavy 2: not shown
light: B1 light
notes: also called He Ab P271_09D
B9: GpH7-A5/GpH7-B3 variant N325_14T/GpL16-k0 (antibody, human IgG1, kappa)
heavy 1: not shown
heavy 2: not shown
light: B1 light
notes: also called He Ab N325_14T
B10: GpH7-A5/GpH7-B3 variant N325_20W/GpL16-k0 (antibody, human IgG1, kappa)
heavy 1: not shown
heavy 2: not shown
light: B1 light
notes: also called He Ab N325_20W
B11: GpH7-A5/GpH7-B3 variant P271_10E/GpL16-k0 (antibody, human IgG1, kappa)
heavy 1: not shown
heavy 2: not shown
light: B1 light
notes: also called He Ab P271_10E
B12: GpH7-A5/GpH7-B3 variant P238_16H/GpL16-k0 (antibody, human IgG1, kappa)
heavy 1: not shown
heavy 2: not shown
light: B1 light
notes: also called He Ab P238_16H
B13: GpH7-A5/GpH7-B3 variant P238_15Y/GpL16-k0 (antibody, human IgG1, kappa)
heavy 1: not shown
heavy 2: not shown
light: B1 light
notes: also called He Ab P238_15Y
B14: GpH7-A5/GpH7-B3 variant N325_13S/GpL16-k0 (antibody, human IgG1, kappa)
heavy 1: not shown
heavy 2: not shown
light: B1 light
notes: also called He Ab N325_13S
B15: GpH7-A5/GpH7-B3 variant N325_10E/GpL16-k0 (antibody, human IgG1, kappa)
heavy 1: not shown
heavy 2: not shown
light: B1 light
notes: also called He Ab N325_10E
B16: GpH7-A5/GpH7-B3 variant P271_08L/GpL16-k0 (antibody, human IgG1, kappa)
heavy 1: not shown
heavy 2: not shown
light: B1 light
notes: also called He Ab P271_08L
B17: GpH7-A5/GpH7-B3 variant P331_02A/GpL16-k0 (antibody, human IgG1, kappa)
heavy 1: not shown
heavy 2: not shown
light: B1 light
notes: also called He Ab P331_02A
B18: GpH7-A5/GpH7-B3 variant P238_04F/GpL16-k0 (antibody, human IgG1, kappa)
heavy 1: not shown
heavy 2: not shown
light: B1 light
notes: also called He Ab P238_04F
B19: GpH7-A5/GpH7-B3 variant P238_06M/GpL16-k0 (antibody, human IgG1, kappa)
heavy 1: not shown
heavy 2: not shown
light: B1 light
notes: also called He Ab P238_06M
B20: GpH7-A5/GpH7-B3 variant P238_10E/GpL16-k0 (antibody, human IgG1, kappa)
heavy 1: not shown
heavy 2: not shown
light: B1 light
notes: also called He Ab P238_10E
B21: GpH7-A5/GpH7-B3 variant N325_08L/GpL16-k0 (antibody, human IgG1, kappa)
heavy 1: not shown
heavy 2: not shown
light: B1 light
notes: also called He Ab N325_08L
B22: GpH7-A5/GpH7-B3 variant N325_09D/GpL16-k0 (antibody, human IgG1, kappa)
heavy 1: not shown
heavy 2: not shown
light: B1 light
notes: also called He Ab N325_09D
B23: GpH7-A5/GpH7-B3 variant P238_03V/GpL16-k0 (antibody, human IgG1, kappa)
heavy 1: not shown
heavy 2: not shown
light: B1 light
notes: also called He Ab P238_03V
B24: GpH7-A5/GpH7-B3 variant P238_09D/GpL16-k0 (antibody, human IgG1, kappa)
heavy 1: not shown
heavy 2: not shown
light: B1 light
notes: also called He Ab P238_09D
B25: GpH7-A5/GpH7-B3 variant N325_15Y/GpL16-k0 (antibody, human IgG1, kappa)
heavy 1: not shown
heavy 2: not shown
light: B1 light
notes: also called He Ab N325_15Y

For the first assay, the target named is T1, FcγRIIb extracellular domain with …. Briefly: SPR (Biacore), relative binding. As for the experimental part: Analysis of interaction between objective antibody and the FcγR was carried out using Biacore T100 (GE Healthcare). HBS-EP+ (GE Healthcare) was used as the running buffer, and the measurement temperature was set to 25° C. Chips produced by immobilizing the antigen peptide by the amine coupling method to a Series S Sencor Chip CM5 (GE Healthcare), or alternatively, chips produced by allowing preliminarily biotinylated antigen peptides to interact with and immobilize onto a Series S Sensor Chip SA (certified) (GE Healthcare) were used. Antibodies of interest were captured onto an antigen peptide-immobilized chip, and allowed to interact to each FcγR diluted with running buffer. To regenerate and repeatedly use the chip, the antibodies captured on the chip were washed off by reacting 10 mM glycine-HCl, pH 1.5.
With B1, the Ho/Con_2b was 132 % of HoCon Ab GpH7-B3/GpL16-k0.
On the same count and under the same terms, to B2 belongs 35.3 % of HoCon Ab GpH7-B3/GpL16-k0.
Same read-out and setting: then B3, with 83.1 % of HoCon Ab GpH7-B3/GpL16-k0.

The next assay concerns the target T2, FcγRIIa R. Kind of assay: SPR (Biacore), captured antibody, FcγR as analyte; relative binding activity. (SPR reads the build-up and loss of mass on a sensor chip optically.)
For B4, the He/Con_2aR is 114 % (GpH7-A5/GpH7-B3/GpL16-k0 = 100).
Same read-out and setting: to B5 belongs 111 % (GpH7-A5/GpH7-B3/GpL16-k0 = 100).
Take B6: the He/Con_2aR was 117 % (GpH7-A5/GpH7-B3/GpL16-k0 = 100).
For B7, the He/Con_2aR is 104 % (GpH7-A5/GpH7-B3/GpL16-k0 = 100).
Same read-out and setting: to B8 belongs 110 % (GpH7-A5/GpH7-B3/GpL16-k0 = 100); to B9, 105 % (GpH7-A5/GpH7-B3/GpL16-k0 = 100); to B10, 134 % (GpH7-A5/GpH7-B3/GpL16-k0 = 100).
Same read-out and setting: to B11 belongs 103 % (GpH7-A5/GpH7-B3/GpL16-k0 = 100); to B12, 122 % (GpH7-A5/GpH7-B3/GpL16-k0 = 100); to B13, 156 % (GpH7-A5/GpH7-B3/GpL16-k0 = 100).
Still for that read-out and setting: to B14 belongs 143 % (GpH7-A5/GpH7-B3/GpL16-k0 = 100).
Take B15: the He/Con_2aR was 105 % (GpH7-A5/GpH7-B3/GpL16-k0 = 100).
For the molecule B16, the He/Con_2aR is 104 % (GpH7-A5/GpH7-B3/GpL16-k0 = 100).
The same measure, in the same setting: to B17 belongs 106 % (GpH7-A5/GpH7-B3/GpL16-k0 = 100); to B18, 174 % (GpH7-A5/GpH7-B3/GpL16-k0 = 100); to B19, 139 % (GpH7-A5/GpH7-B3/GpL16-k0 = 100).
On the same count and under the same terms, then B20, with 151 % (GpH7-A5/GpH7-B3/GpL16-k0 = 100).
Same read-out and setting: to B21 belongs 144 % (GpH7-A5/GpH7-B3/GpL16-k0 = 100); to B22, 116 % (GpH7-A5/GpH7-B3/GpL16-k0 = 100); to B23, 120 % (GpH7-A5/GpH7-B3/GpL16-k0 = 100).
Regarding B24, the He/Con_2aR is 148 % (GpH7-A5/GpH7-B3/GpL16-k0 = 100).
Consider B25, for which the He/Con_2aR was 101 % (GpH7-A5/GpH7-B3/GpL16-k0 = 100).
